From the Human Domainome abundance scans (Beltran et al. 2025) come the findings set out here.

± gives the uncertainty stated by the source.

First the molecules themselves.
B1: LIM and senescent cell antigen-like-containing domain protein 2, residues 13 to 71; numbered along this chain, Q7Z4I7 (parent)
chain: AVCQRCQARFSPAERIVNSNGELYHEHCFVCAQCFRPFPEGLFYEFEGRKYCEHDFQML

In the series the parent is B1. Kind of series: abundance fitness (aPCA) (normalised: wild type 0, dead -1); higher = more abundant; growth selection in yeast, the domain comes from the species named. The settings on record: Homo sapiens.
Take AVCQRCQAWFSPAERIVNSNGELYHEHCFVCAQCFRPFPEGLFYEFEGRKYCEHDFQML [R9W]: the abundance fitness was -0.034 ± 0.079.

AVCQRCQANFSPAERIVNSNGELYHEHCFVCAQCFRPFPEGLFYEFEGRKYCEHDFQML [R9N]: the abundance fitness is -0.135 ± 0.11.

Regarding AVCQRCQADFSPAERIVNSNGELYHEHCFVCAQCFRPFPEGLFYEFEGRKYCEHDFQML [R9D], the abundance fitness was -0.019 ± 0.11.

On to AVCQRCQAAFSPAERIVNSNGELYHEHCFVCAQCFRPFPEGLFYEFEGRKYCEHDFQML [R9A], for which the abundance fitness is -0.104 ± 0.076.

For AVCQRCQALFSPAERIVNSNGELYHEHCFVCAQCFRPFPEGLFYEFEGRKYCEHDFQML [R9L], the abundance fitness is -0.122 ± 0.052.

Turning to AVCQRCQAVFSPAERIVNSNGELYHEHCFVCAQCFRPFPEGLFYEFEGRKYCEHDFQML [R9V], the abundance fitness was -0.019 ± 0.063.

With AVCQRCQAYFSPAERIVNSNGELYHEHCFVCAQCFRPFPEGLFYEFEGRKYCEHDFQML [R9Y], the abundance fitness is -0.292 ± 0.1.

AVCQRCQAMFSPAERIVNSNGELYHEHCFVCAQCFRPFPEGLFYEFEGRKYCEHDFQML [R9M]: the abundance fitness is -0.075 ± 0.074.

Consider AVCQRCQARRSPAERIVNSNGELYHEHCFVCAQCFRPFPEGLFYEFEGRKYCEHDFQML [F10R], for which the abundance fitness was -0.601 ± 0.081.

With AVCQRCQARKSPAERIVNSNGELYHEHCFVCAQCFRPFPEGLFYEFEGRKYCEHDFQML [F10K], the abundance fitness is -0.548 ± 0.1.

In the case of AVCQRCQARISPAERIVNSNGELYHEHCFVCAQCFRPFPEGLFYEFEGRKYCEHDFQML [F10I], the abundance fitness was 0.022 ± 0.1.

For the variant AVCQRCQARCSPAERIVNSNGELYHEHCFVCAQCFRPFPEGLFYEFEGRKYCEHDFQML [F10C], the abundance fitness was -0.139 ± 0.086.

For AVCQRCQARDSPAERIVNSNGELYHEHCFVCAQCFRPFPEGLFYEFEGRKYCEHDFQML [F10D], the abundance fitness was -1.05 ± 0.24.

As to AVCQRCQARNSPAERIVNSNGELYHEHCFVCAQCFRPFPEGLFYEFEGRKYCEHDFQML [F10N], the abundance fitness was -0.607 ± 0.19.

AVCQRCQARTSPAERIVNSNGELYHEHCFVCAQCFRPFPEGLFYEFEGRKYCEHDFQML [F10T]: the abundance fitness was -0.093 ± 0.068.

With AVCQRCQARHSPAERIVNSNGELYHEHCFVCAQCFRPFPEGLFYEFEGRKYCEHDFQML [F10H], the abundance fitness was -0.343 ± 0.16.

With AVCQRCQARMSPAERIVNSNGELYHEHCFVCAQCFRPFPEGLFYEFEGRKYCEHDFQML [F10M], the abundance fitness was -0.002 ± 0.084.

On to AVCQRCQARPSPAERIVNSNGELYHEHCFVCAQCFRPFPEGLFYEFEGRKYCEHDFQML [F10P], for which the abundance fitness was -0.304 ± 0.093.

For the variant AVCQRCQARQSPAERIVNSNGELYHEHCFVCAQCFRPFPEGLFYEFEGRKYCEHDFQML [F10Q], the abundance fitness is -0.707 ± 0.1.

In the case of AVCQRCQARASPAERIVNSNGELYHEHCFVCAQCFRPFPEGLFYEFEGRKYCEHDFQML [F10A], the abundance fitness is -0.389 ± 0.1.

For AVCQRCQARLSPAERIVNSNGELYHEHCFVCAQCFRPFPEGLFYEFEGRKYCEHDFQML [F10L], the abundance fitness worked out at 0.05 ± 0.049.

AVCQRCQARWSPAERIVNSNGELYHEHCFVCAQCFRPFPEGLFYEFEGRKYCEHDFQML [F10W]: the abundance fitness was -0.523 ± 0.1.

On to AVCQRCQARSSPAERIVNSNGELYHEHCFVCAQCFRPFPEGLFYEFEGRKYCEHDFQML [F10S], for which the abundance fitness was -0.475 ± 0.07.

Take AVCQRCQARYSPAERIVNSNGELYHEHCFVCAQCFRPFPEGLFYEFEGRKYCEHDFQML [F10Y]: the abundance fitness is -0.359 ± 0.1.

As for AVCQRCQARFSPADRIVNSNGELYHEHCFVCAQCFRPFPEGLFYEFEGRKYCEHDFQML [E14D], the abundance fitness is -0.075 ± 0.11.

As to AVCQRCQARFSPACRIVNSNGELYHEHCFVCAQCFRPFPEGLFYEFEGRKYCEHDFQML [E14C], the abundance fitness is -0.156 ± 0.092.

As for AVCQRCQARFSPAARIVNSNGELYHEHCFVCAQCFRPFPEGLFYEFEGRKYCEHDFQML [E14A], the abundance fitness stood at 0.048 ± 0.076.

Consider AVCQRCQARFEPAERIVNSNGELYHEHCFVCAQCFRPFPEGLFYEFEGRKYCEHDFQML [S11E], for which the abundance fitness is 0.019 ± 0.078.

Regarding AVCQRCQARFQPAERIVNSNGELYHEHCFVCAQCFRPFPEGLFYEFEGRKYCEHDFQML [S11Q], the abundance fitness is -0.075 ± 0.08.

On to AVCQRCQARFFPAERIVNSNGELYHEHCFVCAQCFRPFPEGLFYEFEGRKYCEHDFQML [S11F], for which the abundance fitness is -0.227 ± 0.12.

With AVCQRCQARFTPAERIVNSNGELYHEHCFVCAQCFRPFPEGLFYEFEGRKYCEHDFQML [S11T], the abundance fitness is -0.087 ± 0.067.

Consider AVCQRCQARFVPAERIVNSNGELYHEHCFVCAQCFRPFPEGLFYEFEGRKYCEHDFQML [S11V], for which the abundance fitness is -0.227 ± 0.055.

Consider AVCQRCQARFHPAERIVNSNGELYHEHCFVCAQCFRPFPEGLFYEFEGRKYCEHDFQML [S11H], for which the abundance fitness is -0.407 ± 0.16.

Regarding AVCQRCQARFCPAERIVNSNGELYHEHCFVCAQCFRPFPEGLFYEFEGRKYCEHDFQML [S11C], the abundance fitness was -0.155 ± 0.13.

As for AVCQRCQARFDPAERIVNSNGELYHEHCFVCAQCFRPFPEGLFYEFEGRKYCEHDFQML [S11D], the abundance fitness is 0.102 ± 0.091.

Take AVCQRCQARFWPAERIVNSNGELYHEHCFVCAQCFRPFPEGLFYEFEGRKYCEHDFQML [S11W]: the abundance fitness was -0.131 ± 0.08.

With AVCQRCQARFIPAERIVNSNGELYHEHCFVCAQCFRPFPEGLFYEFEGRKYCEHDFQML [S11I], the abundance fitness is -0.248 ± 0.12.

Take AVCQRCQARFYPAERIVNSNGELYHEHCFVCAQCFRPFPEGLFYEFEGRKYCEHDFQML [S11Y]: the abundance fitness is -0.18 ± 0.15.

As for AVCQRCQARFMPAERIVNSNGELYHEHCFVCAQCFRPFPEGLFYEFEGRKYCEHDFQML [S11M], the abundance fitness is 0.004 ± 0.067.

For the variant AVCQRCQARFAPAERIVNSNGELYHEHCFVCAQCFRPFPEGLFYEFEGRKYCEHDFQML [S11A], the abundance fitness was 0.137 ± 0.063.

For the variant AVCQRCQARFNPAERIVNSNGELYHEHCFVCAQCFRPFPEGLFYEFEGRKYCEHDFQML [S11N], the abundance fitness is -0.105 ± 0.12.

In the case of AVCQRCQARFRPAERIVNSNGELYHEHCFVCAQCFRPFPEGLFYEFEGRKYCEHDFQML [S11R], the abundance fitness is -0.175 ± 0.061.

For AVCQRCQARFKPAERIVNSNGELYHEHCFVCAQCFRPFPEGLFYEFEGRKYCEHDFQML [S11K], the abundance fitness was -0.055 ± 0.074.

Turning to AVCQRCQARFLPAERIVNSNGELYHEHCFVCAQCFRPFPEGLFYEFEGRKYCEHDFQML [S11L], the abundance fitness was -0.053 ± 0.05.

For the variant AVCQRCQARFGPAERIVNSNGELYHEHCFVCAQCFRPFPEGLFYEFEGRKYCEHDFQML [S11G], the abundance fitness is -0.011 ± 0.063.
